Measurements from patent US20050238642A1, “Modified bouganin proteins, cytotoxins and methods and uses thereof” (priority 2004, published 2005).

Assays:
[1] = biological target: T1, Ep-CAM (Epithelial Cell Adhesion Molecule) (human, UniProt P16422 24-314); experiment: cell-based or functional assay
T1 sequence: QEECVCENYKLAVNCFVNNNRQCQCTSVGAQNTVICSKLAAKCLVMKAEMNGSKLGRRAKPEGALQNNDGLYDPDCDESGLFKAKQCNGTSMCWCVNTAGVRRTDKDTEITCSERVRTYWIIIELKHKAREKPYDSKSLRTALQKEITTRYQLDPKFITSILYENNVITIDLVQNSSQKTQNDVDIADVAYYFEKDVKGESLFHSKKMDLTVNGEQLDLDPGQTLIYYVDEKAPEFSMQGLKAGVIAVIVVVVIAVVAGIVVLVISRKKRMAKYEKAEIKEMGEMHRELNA

[2] = biological target: T1, Ep-CAM (Epithelial Cell Adhesion …); experiment: flow cytometry, 10 µg/mL VB6-845 on C-4 I cells (cervical), anti-His detection; ± SEM
[3] = biological target: T1, Ep-CAM (Epithelial Cell Adhesion …); experiment: flow cytometry, 10 µg/mL VB6-845 on RL95-2 cells (endometrial), anti-His detection; ± SEM
[4] = biological target: T1, Ep-CAM (Epithelial Cell Adhesion …); experiment: flow cytometry, 10 µg/mL VB6-845 on TOV-112G cells (ovarian; Ep-CAM status of the line not stated), anti-His detection; ± SEM
[5] = biological target: T1, Ep-CAM (Epithelial Cell Adhesion …); experiment: flow cytometry, 10 µg/mL VB6-845 on HEC-1-A cells (endometrial), anti-His detection; ± SEM
[6] = biological target: T1, Ep-CAM (Epithelial Cell Adhesion …); experiment: cell-based or functional assay; remark: listed apart in the source
[7] = biological target: T1, Ep-CAM (Epithelial Cell Adhesion …); experiment: flow cytometry, 10 µg/mL VB6-845 on NIH:OVCAR-3 cells (ovarian, Ep-CAM-positive), anti-His detection; ± SEM
[8] = biological target: T1, Ep-CAM (Epithelial Cell Adhesion …); experiment: flow cytometry, 10 µg/mL VB6-845 on SK-UT-1 cells (endometrial; Ep-CAM status of the line not stated), anti-His detection; ± SEM
[9] = biological target: T1, Ep-CAM (Epithelial Cell Adhesion …); experiment: flow cytometry, 10 µg/mL VB6-845 on SK-OV-3 cells (ovarian), anti-His detection; ± SEM
[10] = biological target: T1, Ep-CAM (Epithelial Cell Adhesion …); experiment: flow cytometry, 10 µg/mL VB6-845 on HT-3 cells (cervical), anti-His detection; ± SEM
[11] = biological target: T1, Ep-CAM (Epithelial Cell Adhesion …); experiment: flow cytometry, 10 µg/mL VB6-845 on C-33A cells (cervical; Ep-CAM status of the line not stated), anti-His detection; ± SEM
[12] = system: CAL 27; experiment: Flow cytometry reactivity test (Example 7); type: binding; conditions: Ep-CAM positive cell line CAL 27
Description: (§1) The flow cytometry tests were conducted by incubating the constructs or control with 0.45×10^6 cells for an hour on ice. After washing, cell surface bound constructs were detected with a rabbit anti-bouganin (for FIG. 10A) or mouse anti-His tag (FIG. 10B) for an hour on ice. The cells were washed and incubated with FITC-conjugated sheep anti-rabbit IgG (FIG. 10A) and FITC-conjugated sheep anti-mouse (IgG) (FIG. 10B) for 30 minutes on ice. Subsequently the cells were washed, resuspended in PBS 5% FCS containing propidium iodide for assessment of antibody binding by flow cytometry.

[13] = system: NIH:OVCAR-3; experiment: Flow cytometry reactivity test (Example 7); type: binding; conditions: Ep-CAM positive cell line NIH:OVCAR-3
Description: as §1

[14] = system: A-375; experiment: Flow cytometry reactivity test (Example 7); type: binding; conditions: Ep-CAM-negative cell line A-375
Description: as §1

[15] = system: tumor cell lines; experiment: VB6-845 Tumor Cell Indications: binding for scFv 845 to tumor cell lines (median fluorescence)
Excerpt: Tumor-targeting cytotoxins are composed of the variable region of an antibody linked to a bacterial, fungal or plant toxin. The present study illustrates that the deimmunized bouganin constructs of the invention, comprising deimmunized bouganin linked to a targeting moiety have reduced immunogenicity, while still retaining their biological activity.

B1: VB6-845 (Fab)
chain 1: EVQLVQSGPGLVQPGGSVRISCAASGYTFTNYGMNWVKQAPGKGLEWMGWINTYTGESTYADSFKGRFTFSLDTSASAAYLQINSLRAEDTAVYYCARFAIKGDYWGQGTLLTVSSASTKGPSVFPLAPSSKSTSGGTAALGCLVKDYFPEPVTVSWNSGALTSGVHTFPAVLQSSGLYSLSSVVTVPSSSLGTQTYICNVNHKPSNTKVDKKVEPKSCTRHRQPRGWEQLYNTVSFNLGEAYEYPTFIQDLRNELAKGTPVCQLPVTLQTIADDKRFVLVDITTTSKKTVKVAIDVTDVYVVGYQDKWDGKDRAVFLDKVPTVATSKLFPGVTNRVTLTFDGSYQKLVNAAKADRKALELGVNKLEFSIEAIHGKTINGQEAAKFFLIVIQMVSEAARFKYIETEVVDRGLYGSFKPNFKVLNLENNWGDISDAIHKSSPQCTTINPALQLISPSNDPWVVNKVSQISPDMGILKFKSSK
chain 2: HHHHHHDIQMTQSPSSLSASVGDRVTITCRSTKSLLHSNGITYLYWYQQKPGKAPKLLIYQMSNLASGVPSRFSSSGSGTDFTLTISSLQPEDFATYYCAQNLEIPRTFGQGTKVELKRTVAAPSVFIFPPSDEQLKSGTASVVCLLNNFYPREAKVQWKVDNALQSGNSQESVTEQDSKDSTYSLSSTLTLSKADYEKHKVYACEVTHQGLSSPVTKSFNRGEC
notes: also called Fab anti-Ep-CAM-de-bouganin (Bou156) construct
[1]
  IC50 nM, MTS cytotoxicity assay, C-4 I cells (VB6-845 70% pure): 1.7 nM
  IC50 nM, MTS cytotoxicity assay, Caov-3 cells (VB6-845 70% pure): 1.3 nM
  IC50 nM, MTS cytotoxicity assay, HEC-1-A cells (VB6-845 70% pure): 43 nM
  IC50 nM, MTS cytotoxicity assay, HT-3 cells (VB6-845 70% pure): 23 nM
  IC50 nM, MTS cytotoxicity assay, KLE cells (VB6-845 70% pure): > 100 nM
  IC50 nM, MTS cytotoxicity assay, ME-180 cells (VB6-845 70% pure): 37 nM
  IC50 nM, MTS cytotoxicity assay, MS751 cells (VB6-845 70% pure): 0.43 nM
  IC50 nM, MTS cytotoxicity assay, NIH-OVCAR-3 cells (VB6-845 70% pure): 3.4 nM
  IC50 nM, MTS cytotoxicity assay, RL95-2 cells (VB6-845 70% pure): 100 nM
  IC50 nM, MTS cytotoxicity assay, SK-OV-3 cells (VB6-845 70% pure): > 100 nM
[2]
  fold-increase in MF: 6.8 fold
[3]
  fold-increase in MF: 4.9 fold
[4]
  fold-increase in MF: 1.1 fold
[5]
  fold-increase in MF: 42.3 fold
[6]
  IC50 nM, MTS cytotoxicity assay, NIH:OVCAR-3 cells (VB6-845 90% pure): 1 nM
[7]
  fold-increase in MF: 33.6 fold
[8]
  fold-increase in MF: 1.1 fold
[9]
  fold-increase in MF: 4.3 fold
[10]
  fold-increase in MF: 29.1 fold
[11]
  fold-increase in MF: 1.1 fold

B2: VB6-845-CL-de-bouganin: Fab anti-Ep-CAM de-bouganin construct, Bou156 linked at the C-terminus of the CL domain (protein)
chain 1: HHHHHHEVQLVQSGPGLVQPGGSVRISCAASGYTFTNYGMNWVKQAPGKGLEWMGWINTYTGESTYADSFKGRFTFSLDTSASAAYLQINSLRAEDTAVYYCARFAIKGDYWGQGTLLTVSSASTKGPSVFPLAPSSKSTSGGTAALGCLVKDYFPEPVTVSWNSGALTSGVHTFPAVLQSSGLYSLSSVVTVPSSSLGTQTYICNVNHKPSNTKVDKKVEPKSC
chain 2: DIQMTQSPSSLSASVGDRVTITCRSTKSLLHSNGITYLYWYQQKPGKAPKLLIYQMSNLASGVPSRFSSSGSGTDFTLTISSLQPEDFATYYCAQNLEIPRTFGQGTKVELKRTVAAPSVFIFPPSDEQLKSGTASVVCLLNNFYPREAKVQWKVDNALQSGNSQESVTEQDSKDSTYSLSSTLTLSKADYEKHKVYACEVTHQGLSSPVTKSFNRGECTRHRQPRGWEQLYNTVSFNLGEAYEYPTFIQDLRNELAKGTPVCQLPVTLQTIADDKRFVLVDITTTSKKTVKVAIDVTDVYVVGYQDKWDGKDRAVFLDKVPTVATSKLFPGVTNRVTLTFDGSYQKLVNAAKADRKALELGVNKLEFSIEAIHGKTINGQEAAKFFLIVIQMVSEAARFKYIETEVVDRGLYGSFKPNFKVLNLENNWGDISDAIHKSSPQCTTINPALQLISPSNDPWVVNKVSQISPDMGILKFKSSK
[12]
  shift in median fluorescence: marked shift in median fluorescence
[13]
  shift in median fluorescence: marked shift in median fluorescence
[14]
  shift in median fluorescence: No shift in median fluorescence

B3: scFv 845: the Ep-CAM antibody of VB6-845, head prints scFv 845 (IgG) (antibody, chains of the INN, looked up, V domains shown)
VH: EVQLVQSGPGLVQPGGSVRISCAASGYTFTNYGMNWVKQAPGKGLEWMGWINTYTGESTYADSFKGRFTFSLDTSASAAYLQINSLRAEDTAVYYCARFAIKGDYWGQGTLLTVSS
VL: DIQMTQSPSSLSASVGDRVTITCRSTKSLLHSNGITYLYWYQQKPGKAPKLLIYQMSNLASGVPSRFSSSGSGTDFTLTISSLQPEDFATYYCAQNLEIPRTFGQGTKVELK
modifications: scFv
[15]; Bladder, 14 cell lines
  Binding for scFv 845 (IgG): mean fold-increase in median fluorescence over the control antibody: 59.6 fold
[15]; Cervical, 3 cell lines
  Binding for scFv 845 (IgG): mean fold-increase in median fluorescence over the control antibody: 37.5 fold
[15]; Endometrial, 1 cell line
  Binding for scFv 845 (IgG): mean fold-increase in median fluorescence over the control antibody: 23.8 fold
[15]; Esophageal, 3 cell lines
  Binding for scFv 845 (IgG): mean fold-increase in median fluorescence over the control antibody: 72.4 fold
[15]; Gastric, 3 cell lines
  Binding for scFv 845 (IgG): mean fold-increase in median fluorescence over the control antibody: 148.9 fold
[15]; Head and Neck, 2 cell lines
  Binding for scFv 845 (IgG): mean fold-increase in median fluorescence over the control antibody: 11.4 fold
[15]; Kidney, 3 cell lines
  Binding for scFv 845 (IgG): mean fold-increase in median fluorescence over the control antibody: 9.4 fold
[15]; Lung, 3 cell lines
  Binding for scFv 845 (IgG): mean fold-increase in median fluorescence over the control antibody: 16.4 fold
[15]; Melanoma, 3 cell lines
  Binding for scFv 845 (IgG): mean fold-increase in median fluorescence over the control antibody: 1.6 fold
[15]; Ovarian, 2 cell lines
  Binding for scFv 845 (IgG): mean fold-increase in median fluorescence over the control antibody: 84.1 fold
[15]; Pancreas, 3 cell lines
  Binding for scFv 845 (IgG): mean fold-increase in median fluorescence over the control antibody: 5.5 fold
[15]; Prostate, 5 cell lines
  Binding for scFv 845 (IgG): mean fold-increase in median fluorescence over the control antibody: 50.1 fold
